Test results taken from patent US20240189392A1 (AMBRX, published 2024).

Key:
Experiment in all cases: cell-based or functional assay
human RXFP1 = molecular target: T1, human RXFP1 (human, UniProt Q9HBX9 1-757)
T1 sequence (looked up): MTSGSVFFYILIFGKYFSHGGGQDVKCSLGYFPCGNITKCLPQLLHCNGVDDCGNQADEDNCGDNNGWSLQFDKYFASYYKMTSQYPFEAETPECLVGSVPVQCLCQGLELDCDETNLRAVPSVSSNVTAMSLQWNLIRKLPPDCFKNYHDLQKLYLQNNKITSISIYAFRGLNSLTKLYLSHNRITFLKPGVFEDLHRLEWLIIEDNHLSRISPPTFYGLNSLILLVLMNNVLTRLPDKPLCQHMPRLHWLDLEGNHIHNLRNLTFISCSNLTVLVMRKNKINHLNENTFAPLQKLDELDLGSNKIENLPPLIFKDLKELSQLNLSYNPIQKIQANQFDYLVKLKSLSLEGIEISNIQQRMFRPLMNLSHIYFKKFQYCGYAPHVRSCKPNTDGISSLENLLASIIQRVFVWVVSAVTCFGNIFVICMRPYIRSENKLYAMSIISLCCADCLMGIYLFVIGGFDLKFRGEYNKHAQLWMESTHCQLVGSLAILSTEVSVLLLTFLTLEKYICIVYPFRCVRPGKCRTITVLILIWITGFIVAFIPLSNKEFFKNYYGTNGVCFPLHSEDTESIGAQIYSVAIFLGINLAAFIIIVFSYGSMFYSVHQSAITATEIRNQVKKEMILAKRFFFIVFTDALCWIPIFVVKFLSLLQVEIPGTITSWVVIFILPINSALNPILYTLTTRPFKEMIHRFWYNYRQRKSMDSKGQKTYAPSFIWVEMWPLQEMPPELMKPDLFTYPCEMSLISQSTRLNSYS

human RXFP4 = human RXFP4 (human, UniProt Q8TDU9 1-374)
Sequence of human RXFP4 (Q8TDU9 whole entry): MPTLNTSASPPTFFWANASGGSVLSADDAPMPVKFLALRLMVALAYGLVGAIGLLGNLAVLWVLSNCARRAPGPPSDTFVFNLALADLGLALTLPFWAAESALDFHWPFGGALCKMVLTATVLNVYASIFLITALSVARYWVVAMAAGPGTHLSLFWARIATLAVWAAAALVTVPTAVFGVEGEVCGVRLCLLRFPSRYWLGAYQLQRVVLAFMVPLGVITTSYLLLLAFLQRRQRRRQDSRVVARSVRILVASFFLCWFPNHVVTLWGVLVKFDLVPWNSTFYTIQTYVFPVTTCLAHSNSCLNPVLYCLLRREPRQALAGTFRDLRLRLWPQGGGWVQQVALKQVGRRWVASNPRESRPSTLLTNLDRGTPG

dog RXFP1 = dog RXFP1 (dog)
rat RXFP1 = molecular target: T2, rat RXFP1 (rat, UniProt Q6R6I6 1-758)
T2 sequence (looked up): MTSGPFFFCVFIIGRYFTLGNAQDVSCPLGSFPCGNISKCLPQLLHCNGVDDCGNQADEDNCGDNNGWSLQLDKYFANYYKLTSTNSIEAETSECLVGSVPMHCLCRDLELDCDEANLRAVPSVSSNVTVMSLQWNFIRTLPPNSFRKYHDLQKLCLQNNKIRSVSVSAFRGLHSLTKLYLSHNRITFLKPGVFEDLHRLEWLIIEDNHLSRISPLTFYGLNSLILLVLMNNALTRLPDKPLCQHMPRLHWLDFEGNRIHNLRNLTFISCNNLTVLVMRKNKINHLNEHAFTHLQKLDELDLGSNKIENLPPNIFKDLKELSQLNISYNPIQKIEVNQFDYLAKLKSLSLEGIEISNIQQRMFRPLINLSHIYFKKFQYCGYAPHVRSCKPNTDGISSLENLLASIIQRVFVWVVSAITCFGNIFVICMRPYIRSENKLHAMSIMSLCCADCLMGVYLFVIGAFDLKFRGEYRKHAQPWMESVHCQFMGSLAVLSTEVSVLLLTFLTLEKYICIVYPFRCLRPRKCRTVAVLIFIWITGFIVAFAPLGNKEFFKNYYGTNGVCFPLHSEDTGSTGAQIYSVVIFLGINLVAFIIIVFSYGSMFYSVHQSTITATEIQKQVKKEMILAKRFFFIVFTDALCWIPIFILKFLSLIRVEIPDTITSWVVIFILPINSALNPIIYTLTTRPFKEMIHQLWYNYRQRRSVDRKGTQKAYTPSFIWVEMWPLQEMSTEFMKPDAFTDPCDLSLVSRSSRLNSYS

mouse RXFP1 = molecular target: T3, mouse RXFP1 (mouse, UniProt Q6R6I7 1-758)
T3 sequence (looked up): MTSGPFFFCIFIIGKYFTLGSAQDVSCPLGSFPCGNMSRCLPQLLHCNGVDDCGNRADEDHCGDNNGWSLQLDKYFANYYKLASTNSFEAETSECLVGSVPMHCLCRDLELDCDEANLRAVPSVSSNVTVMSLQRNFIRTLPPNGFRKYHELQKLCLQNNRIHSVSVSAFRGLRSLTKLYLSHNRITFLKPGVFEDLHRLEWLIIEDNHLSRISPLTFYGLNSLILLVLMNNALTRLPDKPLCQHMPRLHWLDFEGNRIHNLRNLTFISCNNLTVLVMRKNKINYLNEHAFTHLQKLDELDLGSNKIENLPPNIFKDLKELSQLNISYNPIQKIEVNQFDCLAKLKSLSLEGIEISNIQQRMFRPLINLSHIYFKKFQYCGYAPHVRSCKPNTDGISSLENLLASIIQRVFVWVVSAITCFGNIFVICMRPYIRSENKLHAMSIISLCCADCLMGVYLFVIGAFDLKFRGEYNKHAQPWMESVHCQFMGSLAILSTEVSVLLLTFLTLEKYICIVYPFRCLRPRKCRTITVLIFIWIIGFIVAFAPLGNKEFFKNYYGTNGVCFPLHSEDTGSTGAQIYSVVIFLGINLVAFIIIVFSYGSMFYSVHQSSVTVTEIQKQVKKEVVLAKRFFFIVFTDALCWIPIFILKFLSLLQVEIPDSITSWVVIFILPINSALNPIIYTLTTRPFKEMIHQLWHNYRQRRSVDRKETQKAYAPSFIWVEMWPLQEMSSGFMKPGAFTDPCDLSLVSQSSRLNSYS

B1: RLX-A-AQ1-20KPEG (ligand)
chain 1: XLYSALANKCCHVGCTKRSLARFC
chain 2: ASWMEEVIKLCGRELVRAQIAICGMSTWS
modifications: pACF (para-acetylphenylalanine) at position 1 of the A chain, linked to a 20 kDA PEG via an oxime linkage
Potency Ratio (RLX-A-AQ1-20KPEG/WT-RLX), cAMP assay, THP-1 cells (human RXFP1): 26 fold | Potency Ratio (RLX-A-AQ1-20KPEG/WT-RLX), cAMP assay, hRXFP1/CHO-K1 cells (human RXFP1): 32 fold | RLX-A-AQ1-20KPEG Potency Ratio (hRXFP 1-1.0), cAMP assay (human RXFP1): 1 ratio | cAMP Assay EC50 (nM), THP-1 cells (human RXFP1): 7.6 nM | cAMP Assay EC50 (nM), hRXFP1/CHO-K1 cells (human RXFP1): 3.2 nM | cAMP Assay EC50 (nM), inhibition of forskolin-induced cAMP, human RXFP4/CHO-K1 cells (human RXFP4): > 3000 nM | Potency Ratio (RLX-A-AQ1-20KPEG/WT-RLX), cAMP assay, dog RXFP1/CHO-K1 cells (dog RXFP1): 27 fold | RLX-A-AQ1-20KPEG Potency Ratio (hRXFP 1-1.0), cAMP assay (dog RXFP1): 4.7 ratio | cAMP Assay EC50 (nM), dog RXFP1/CHO-K1 cells (dog RXFP1): 15 nM | Potency Ratio (RLX-A-AQ1-20KPEG/WT-RLX), cAMP assay, rat RXFP1/CHO-K1 cells (rat RXFP1): 32 fold | RLX-A-AQ1-20KPEG Potency Ratio (hRXFP 1-1.0), cAMP assay (rat RXFP1): 0.34 ratio | cAMP Assay EC50 (nM), rat RXFP1/CHO-K1 cells (rat RXFP1): 1.1 nM | Potency Ratio (RLX-A-AQ1-20KPEG/WT-RLX), cAMP assay, mouse RXFP1/CHO-K1 cells (mouse RXFP1): 22 fold | RLX-A-AQ1-20KPEG Potency Ratio (hRXFP 1-1.0), cAMP assay (mouse RXFP1): 0.66 ratio | cAMP Assay EC50 (nM), mouse RXFP1/CHO-K1 cells (mouse RXFP1): 2.1 nM
